Measured values as given in US20220348686A1 (Memorial Sloan Kettering, published 2022).

Columns and labels:
Human STEAP1 [1] = molecular target: T1, Human STEAP1 (human, UniProt Q9UHE8 1-339); assay: flow cytometry on TC32 cells after repeated washes in PBS with 2 mM EDTA
T1 construct: Endogenous on Ewing's sarcoma cell lines (TC32 and others) and prostate cancer cell lines; as STP1h transfected into HEK293 cells with a lentiviral vector (GFP part of the transgene); also called STP1h
Experimental: Following binding of the primary antibody, cells were washed in PBS with 2 mM EDTA from 1 to 10 times. After each wash cells were stained with the secondary PE-conjugated goat anti-human IgG antibody and washed once with PBS for flow cytometry. Mean fluorescence intensity (MFI) was normalized to time 1 and depicted in FIG. 4B. While chimeric antibody dropped to below 50% after first wash, clones L1+H1, L1+H2, L1+H5 and L2+H2 remained above 50% through wash #8 and therefore scored as slow koff.
After initial staining (FIG. 4A), ten different clones, including the chimeric BsAb clone, were chosen for further study. To assess binding of these ten clones to TC32 cells, following incubation of the BsAbs, the cells were subjected to ten washes with PBS. An aliquot of the binding reaction after each wash was stained with a fluorochrome labelled anti-human secondary antibody. The extent of binding of the anti-STEAP1 BsAbs to TC32 cells was measured using flow cytometry.

Human STEAP1 [2] = molecular target: T1, Human STEAP1; assay: flow cytometry staining of TC32 cells with different doses

T1 sequence (Q9UHE8 whole entry): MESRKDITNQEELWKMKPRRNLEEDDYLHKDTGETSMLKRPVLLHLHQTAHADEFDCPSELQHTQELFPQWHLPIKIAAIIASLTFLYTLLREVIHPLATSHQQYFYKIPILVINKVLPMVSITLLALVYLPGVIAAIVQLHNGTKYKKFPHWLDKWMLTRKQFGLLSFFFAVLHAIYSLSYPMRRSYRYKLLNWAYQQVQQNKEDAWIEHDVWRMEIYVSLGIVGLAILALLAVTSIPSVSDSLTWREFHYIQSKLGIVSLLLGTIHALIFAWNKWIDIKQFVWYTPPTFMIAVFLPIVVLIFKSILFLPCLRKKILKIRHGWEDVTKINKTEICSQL

Binder | Mean fluorescence intensity (MFI) normalized to time 1, through wash #8 (Human STEAP1 [1]) [%] | binding result (Human STEAP1 [2])
BC259 (VH-1+VL-1 BsAb variant) (bispecific antibody, V domains shown, One of the 24 humanized X120 versions; light chain extended by (G4S)3 linker and huOKT3 anti-CD3 scFv); also called L1+H1) VH: QVQVQESGPGLVKPSQTLSLTCTVTGYSITSDYAWNWIRQPPGKGLEWMGYISNSGSTSYNPSLKSRITISRDTSKNQFSLKLSSVTAADTAVYYCARERNYDYDDYYYAMDYWGQGTTLTVSA VL: not shown | > 50 | –
humanized X120 clone L2+H1 (bispecific antibody, IgG1, V domains shown, One of the 24 humanized X120 versions; light chain with (G4S)3 linker and huOKT3 scFv)) VH: QVQVQESGPGLVKPSQTLSLTCTVTGYSITSDYAWNWIRQPPGKGLEWMGYISNSGSTSYNPSLKSRITISRDTSKNQFSLKLSSVTAADTAVYYCARERNYDYDDYYYAMDYWGQGTTLTVSA VL: not shown | – | binds
humanized X120 clone L4+H2 (bispecific antibody, IgG1, V domains shown, One of the 24 humanized X120 versions; light chain with (G4S)3 linker and huOKT3 scFv)) VH: DVQVQESGPGLVKPSQTLSLTCTVTGYSITSDYAWNWIRQPPGKGLEWMGYISNSGSTSYNPSLKSRITISRDTSKNQFSLKLSSVTAADTAVYYCARERNYDYDDYYYAMDYWGQGTTLTVSA VL: not shown | – | binds
humanized X120 clone L4+H1 (bispecific antibody, IgG1, V domains shown, One of the 24 humanized X120 versions; light chain with (G4S)3 linker and huOKT3 scFv)) VH: QVQVQESGPGLVKPSQTLSLTCTVTGYSITSDYAWNWIRQPPGKGLEWMGYISNSGSTSYNPSLKSRITISRDTSKNQFSLKLSSVTAADTAVYYCARERNYDYDDYYYAMDYWGQGTTLTVSA VL: not shown | – | binds
BC260 (VH-2+VL-1 BsAb variant) (bispecific antibody, V domains shown, One of the 24 humanized X120 versions; light chain extended by (G4S)3 linker and huOKT3 anti-CD3 scFv); also called L1+H2) VH: DVQVQESGPGLVKPSQTLSLTCTVTGYSITSDYAWNWIRQPPGKGLEWMGYISNSGSTSYNPSLKSRITISRDTSKNQFSLKLSSVTAADTAVYYCARERNYDYDDYYYAMDYWGQGTTLTVSA VL: not shown | > 50 | –
